Results: US20080254024A1 (Genentech, published 2008)

T1: NH2-terminal GD epitope-tagged human EphB2 overexpressed on cells (HT1080-EphB2, SVT2-EphB2) (human, UniProt P29323 19-1055)
T1 sequence (looked up): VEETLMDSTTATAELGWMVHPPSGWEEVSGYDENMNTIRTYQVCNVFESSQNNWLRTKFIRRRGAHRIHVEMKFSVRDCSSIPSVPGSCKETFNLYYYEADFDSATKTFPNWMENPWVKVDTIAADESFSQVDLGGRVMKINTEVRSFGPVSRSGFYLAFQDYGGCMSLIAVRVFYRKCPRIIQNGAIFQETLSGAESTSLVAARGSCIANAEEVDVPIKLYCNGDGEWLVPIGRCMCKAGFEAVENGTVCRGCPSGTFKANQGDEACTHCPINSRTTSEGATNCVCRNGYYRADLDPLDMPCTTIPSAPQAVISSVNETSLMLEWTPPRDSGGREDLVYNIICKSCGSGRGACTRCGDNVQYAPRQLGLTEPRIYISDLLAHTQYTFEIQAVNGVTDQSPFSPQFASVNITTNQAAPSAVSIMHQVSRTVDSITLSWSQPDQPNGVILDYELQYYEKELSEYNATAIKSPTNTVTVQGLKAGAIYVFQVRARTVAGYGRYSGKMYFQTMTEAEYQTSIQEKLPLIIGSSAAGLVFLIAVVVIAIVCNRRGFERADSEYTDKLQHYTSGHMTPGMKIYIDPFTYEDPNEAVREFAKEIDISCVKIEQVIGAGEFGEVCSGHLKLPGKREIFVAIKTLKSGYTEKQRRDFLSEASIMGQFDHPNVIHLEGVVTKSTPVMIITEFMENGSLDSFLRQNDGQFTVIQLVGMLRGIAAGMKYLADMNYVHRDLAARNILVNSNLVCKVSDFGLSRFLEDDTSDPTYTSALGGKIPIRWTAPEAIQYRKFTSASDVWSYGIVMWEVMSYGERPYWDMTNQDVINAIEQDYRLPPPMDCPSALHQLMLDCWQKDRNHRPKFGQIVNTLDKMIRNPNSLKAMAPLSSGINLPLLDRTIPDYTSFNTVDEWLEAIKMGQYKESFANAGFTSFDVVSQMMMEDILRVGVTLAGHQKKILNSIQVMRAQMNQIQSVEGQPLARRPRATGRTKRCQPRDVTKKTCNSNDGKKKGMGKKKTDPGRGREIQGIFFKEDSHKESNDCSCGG

T2: polyhis-tagged human EphB2 (baculovirus-derived His8-tagged EphB2 receptor) (human, UniProt P29323 19-543)
T2 construct: extracellular domain; also called polyhis tagged EphB2; purified EphB2 immunogen; not shown: His8 tag
T2 sequence (looked up): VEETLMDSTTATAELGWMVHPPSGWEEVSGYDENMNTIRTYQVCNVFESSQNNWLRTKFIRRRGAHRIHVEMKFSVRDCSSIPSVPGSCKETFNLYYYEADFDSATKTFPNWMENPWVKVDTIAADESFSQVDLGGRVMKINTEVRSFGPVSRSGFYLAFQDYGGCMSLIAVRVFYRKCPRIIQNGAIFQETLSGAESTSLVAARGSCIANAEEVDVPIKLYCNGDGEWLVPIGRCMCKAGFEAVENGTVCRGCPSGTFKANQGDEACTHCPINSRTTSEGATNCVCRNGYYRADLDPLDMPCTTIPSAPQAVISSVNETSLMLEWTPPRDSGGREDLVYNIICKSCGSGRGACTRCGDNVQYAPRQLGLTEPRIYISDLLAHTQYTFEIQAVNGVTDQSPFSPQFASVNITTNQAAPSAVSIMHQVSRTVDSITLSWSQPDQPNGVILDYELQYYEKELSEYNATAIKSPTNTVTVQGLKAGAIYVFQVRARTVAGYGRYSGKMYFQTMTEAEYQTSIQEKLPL

T3: endogenous human EphB2 on cells or tissue (HT1080-GD vector control cells, colorectal cancer cell lines, … (human, UniProt P29323 19-1055))
T3 construct: whole, on cells; also called vector control HT1080 cell line
T3 sequence (looked up): T1 sequence (looked up)

B1: anti-EphB2 monoclonal antibody produced by hybridoma cell line 2H9.11.14 (ATCC PTA-6606) (antibody, IgG1, V domains shown)
VH: QVQLQQSGAELAKPGASVKMSCKASGYTFTSYWMHWVKQRPGQGLEWIGFINPSTGYTDYNQKFKDKATLTVKSSNTAYMQLSRLTSEDSAVYYCTRRLKLLRYAMDYWGQGTTLTVSA
VL: DIVMTQSPSSLSVSAGEKVTMNCKSSQSLLNSGNQENYLAWYQQKPGQPPKLLIYGASTRESGVPDRFTGSGSGTDFTLTISSVQAEDLAVYYCQNDHSYPFTFGAGTKVEIKR
notes: 125I-labelled in the Scatchard and uptake assays; also called Mab 2H9; MAb 2H9
B2: immunoconjugate 2H9-MC-vc-PAB-MMAE (antibody, mouse IgG1, V domains shown)
VH: B1 VH
VL: B1 VL
modifications: MC-vc-PAB-MMAE drug-linker covalently coupled to the antibody; sites and chain not stated
notes: also called MMAE-vc-2H9; 2H9-vc-MMAE

Key:
[1] = target: T1, NH2-terminal GD epitope-tagged human …; test: cell-based or functional assay
[2] = target: T1, NH2-terminal GD epitope-tagged human …; test: Scatchard analysis, 125I-labeled MAb 2H9 with unlabeled MAb 2H9 on HT1080-EphB2 cells, on ice
[3] = target: T2, polyhis-tagged human EphB2 …; test: SPR (BIAcore 3000), antibody immobilized on CM5 chip, polyhis-tagged EphB2 injected, 1:1 model
Experimental: Binding affinity of Mab 2H9 was determined by surface plasmon resonance using Pharmacia BIAcore® 3000 (BIAcore AB, Uppsala, Sweden) at room temperature (see, e.g., Morton et al. (1998) Methods in Enzymology, 295, 268-294). Anti-EphB2 antibodies were immobilized to the sensor chip (CM5) through primary amine groups. The carboxymethylated sensor chip surface matrix was activated by injecting 20 μl of a mixture of 0.025 M N-hydroxysuccinimide and 0.1 M N-ethyl-N′(dimethylaminopropyl) carbodiimide at 5 μl/min. 5-10 μl of 10 μg/ml solution of anti-EphB2 antibodies in 10 mM sodium acetate, pH 4.5, were injected at 5 μl/min. After coupling, unoccupied sites on the chip were blocked by injecting 20 μl of 1M ethanolamine, pH 8.5. The running buffer was PBS containing 0.05% polysorbate 20. For kinetic measurements, two-fold serial dilutions of polyhis-tagged EphB2 in running buffer were injected over the flow cells for 3 minutes at a flow rate of 30 μl/min and the bound polyhis tagged EphB2 was allow to dissociate for 20 minutes. The binding surface was regenerated by injecting 20 μl of 10 mM glycine-HCl (pH 1.5). […] There was no significant non-specific binding of polyhis tagged EphB2 to flow cell one. For calculate apparent binding affinity, data were analyzed using a 1:1 binding model using global fitting. The association and dissociation rate constants were fitted simultaneously (BIAevaluation software).

[4] = target: T3, endogenous human EphB2 on cells or …; test: saturation binding on HT1080-GD cells, HRP-conjugated secondary antibody, absorbance at 450 nm
[5] = target: T3, endogenous human EphB2 on cells or …; test: Scatchard analysis of 125I-labelled MAb 2H9 competed with unlabelled MAb 2H9 on HT1080-GD cells
[6] = target: T1, NH2-terminal GD epitope-tagged human …; test: saturation binding on HT1080-EphB2 cells, HRP-conjugated secondary antibody, absorbance at 450 nm
[7] = target: T1, NH2-terminal GD epitope-tagged human …; test: Scatchard analysis of 125I-labelled MAb 2H9 competed with unlabelled MAb 2H9 on HT1080-EphB2 cells
[8] = target: T3, endogenous human EphB2 on cells or …; test: Scatchard analysis, 125I-labeled MAb 2H9 with unlabeled MAb 2H9 on HT1080-GD cells, on ice; HT1080-GD cells, Scatchard analysis

Row | Binder | internalization of 125I-labeled MAb 2H9 by HT1080-EphB2 cells after shift to 37° C. for 1 hour [1] | Kd [2] | Kd [3] | koff [3] | kon [3] | EC50 (read off the curve) [4] | Kd [5] | EC50 (read off the curve) [6] | Kd [7] | Kd [8] | antibody concentration required for half-maximal cell killing (IC50), Cell Titer-Glo viability after 48 h [1]
1 | B1 | ~2 fold | ~4 nM | 0.12 nM | 1.03e-05 s⁻¹ | 82800 M⁻¹ s⁻¹ | ~0.02 µg/mL | 4.4 nM | ~0.02 µg/mL | 4.1 nM | ~4 nM | –
2 | B2 | – | – | – | – | – | – | – | ~0.02 µg/mL | – | – | 0.006 µg/mL
